Data on one protein can be found in publication PMC2275143 (Nucleic Acids Research, 2008).

This data set deals with the molecule itself. As to the kind of experiment: AUC.

B1: Nep1 from Methanocaldococcus jannaschii (native protein) (enzyme, UniProt Q57977 2-205, looked up)
chain: TYNIILAKSALELIPEEIKNKIRKSRVYKYDILDSNYHYKAMEKLKDKEMRGRPDIIHISLLNILDSPINHEKKLNIYIHTYDDKVLKINPETRLPRNYFRFLGVMEKVLKGERNHLIKMEEKTLEDLLNEINAKKIAIMTKTGKLTHPKLLKEYDTFIIGGFPYGKLKINKEKVFGDIKEISIYNKGLMAWTVCGIICYSLSF
Take B1: the stoichiometry N – broadly, the number of molecules, sites or subunits per partner or assembly – is 2.
